The target of assay [1] is LRID Fab fused to the GPI signal sequence from decay accelerating factor, on SP2/0 cells (Fab-GPI). The assay can be described thus: cell-based or functional assay.
In assay [2] the target is LRID Fab fused to the transmembrane portion of glycophorin A, on SP2/0 cells (Fab-GlycoA). The assay is described as follows: cell-based or functional assay.

In patent publication US20210380685A1 one finds CMC activities, maximum killing and CMC killing of surrogate target cells, EC50 data, which are given here for one molecule.

LRID Fab fused to the transmembrane portion of glycophorin A, on SP2/0 cells (Fab-GlycoA), sequence (VH, as listed by the source limits assumed, chain 1 of 2): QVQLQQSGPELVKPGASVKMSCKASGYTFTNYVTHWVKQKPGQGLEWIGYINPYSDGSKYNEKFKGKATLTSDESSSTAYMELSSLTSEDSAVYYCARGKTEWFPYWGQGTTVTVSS
LRID Fab fused to the transmembrane portion of glycophorin A, on SP2/0 cells (Fab-GlycoA), sequence (VL, as listed by the source limits assumed, chain 2 of 2): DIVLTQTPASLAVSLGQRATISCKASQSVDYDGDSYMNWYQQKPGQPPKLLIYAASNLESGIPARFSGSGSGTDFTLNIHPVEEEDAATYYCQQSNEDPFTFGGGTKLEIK
LRID Fab fused to the GPI signal sequence from decay accelerating factor, on SP2/0 cells (Fab-GPI), sequence (VH, as listed by the source limits assumed, chain 1 of 2): as the sequence (VH, as listed by the source limits assumed, chain 1 of 2) above
LRID Fab fused to the GPI signal sequence from decay accelerating factor, on SP2/0 cells (Fab-GPI), sequence (VL, as listed by the source limits assumed, chain 2 of 2): as the sequence (VL, as listed by the source limits assumed, chain 2 of 2) above

B1: SM03 (antibody, V domains shown)
VH: QVQLQESGGGLVKPGGSLKLSCAASGFAFSIYDMSWVRQTPEKRLEWVAYISSGGGTTYYPDTVKGRFTISRDNAKNTLYLQMSSLKSEDTAMYYCARHSGYGSSYGVLFAYWGQGTLVTVSS
VL: DIQLTQTTSSLSASLGDRVTISCRASQDISNYLNWYQQKPDGTVKLLIYYTSILHSGVPSRFSGSGSGTDYSLTISNLEQEDFATYFCQQGNTLPWTFGGGTKLEIKR
modifications: here or on the partner: The mature protein on cells carries a GPI anchor in place of the cleaved DAF signal; the letters cannot show this.
In the case of B1, in assay [1], the CMC activities, maximum killing is above 90% and the CMC killing of surrogate target cells, EC50 is 220 mg/L. Besides, in assay [2], the CMC activities, maximum killing is above 90% and the CMC killing of surrogate target cells, EC50 is 130 mg/L.
